Measured values reported in paper PMC11931385, “Structural and functional analysis of cancer-associated missense variants in the retinoblastoma protein pocket domain” (The Journal of Biological Chemistry, 2025).
No end group written: not given here. TMR = tetramethyl rhodamine dye

Experiments:
Experiment in all cases: fluorescence polarisation; 25 °C; unlabeled Rb^P titrated against 1.5 nM TMR-E2F1^TD or 7.5 nM TMR-E7^LxCxE; 25 mM Tris pH 8.0, 200 mM NaCl, 1 mM DTT, 0.1% Tween-20; 2 min incubation; quadratic fit; apparent Kd for the variants, Kd for WT
Conditions in all cases: both partners purified
Rb^P T687I = biological target: T1, Rb^P T687I (human, UniProt P06400 380-788, T687I)
T1 construct: also called variant 59
T1 sequence (looked up): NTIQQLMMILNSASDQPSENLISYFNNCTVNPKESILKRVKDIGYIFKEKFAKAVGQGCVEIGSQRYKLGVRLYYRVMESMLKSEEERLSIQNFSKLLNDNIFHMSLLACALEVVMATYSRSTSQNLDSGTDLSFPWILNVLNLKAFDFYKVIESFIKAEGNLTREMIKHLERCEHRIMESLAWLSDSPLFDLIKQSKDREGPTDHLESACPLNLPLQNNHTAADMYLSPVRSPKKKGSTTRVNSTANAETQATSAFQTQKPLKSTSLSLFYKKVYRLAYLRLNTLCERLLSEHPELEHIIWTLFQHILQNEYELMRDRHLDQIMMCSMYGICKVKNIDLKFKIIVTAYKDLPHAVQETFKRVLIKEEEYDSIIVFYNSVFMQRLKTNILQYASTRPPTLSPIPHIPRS

Rb^P H585Y = biological target: T2, Rb^P H585Y (human, UniProt P06400 380-788, H585Y)
T2 construct: also called variant 33
T2 sequence (looked up): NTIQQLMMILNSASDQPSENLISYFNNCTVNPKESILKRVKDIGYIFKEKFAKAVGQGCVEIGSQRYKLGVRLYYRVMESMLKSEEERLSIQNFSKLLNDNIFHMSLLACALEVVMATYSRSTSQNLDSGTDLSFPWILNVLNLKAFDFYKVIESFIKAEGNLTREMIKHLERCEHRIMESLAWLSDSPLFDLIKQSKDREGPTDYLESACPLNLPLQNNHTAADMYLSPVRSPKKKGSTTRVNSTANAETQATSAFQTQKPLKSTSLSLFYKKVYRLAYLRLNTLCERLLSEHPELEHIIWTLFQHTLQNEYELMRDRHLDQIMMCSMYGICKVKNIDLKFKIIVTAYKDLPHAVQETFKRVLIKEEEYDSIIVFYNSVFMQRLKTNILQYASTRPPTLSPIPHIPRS

Rb^P S534R = biological target: T3, Rb^P S534R (human, UniProt P06400 380-788, S534R)
T3 construct: also called variant 23
T3 sequence (looked up): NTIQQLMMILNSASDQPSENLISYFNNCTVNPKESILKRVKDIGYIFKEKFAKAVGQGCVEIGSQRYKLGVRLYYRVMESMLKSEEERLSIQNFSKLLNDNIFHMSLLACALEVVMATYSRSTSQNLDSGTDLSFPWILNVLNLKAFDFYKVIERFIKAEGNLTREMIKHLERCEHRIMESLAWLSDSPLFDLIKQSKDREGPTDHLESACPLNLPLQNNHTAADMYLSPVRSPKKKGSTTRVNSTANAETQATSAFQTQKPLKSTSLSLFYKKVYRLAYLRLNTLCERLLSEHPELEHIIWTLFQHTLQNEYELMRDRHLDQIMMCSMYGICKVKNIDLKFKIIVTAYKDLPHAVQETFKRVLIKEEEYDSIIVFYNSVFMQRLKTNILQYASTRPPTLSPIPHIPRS

Rb^P R668C = biological target: T4, Rb^P R668C (human, UniProt P06400 380-788, R668C)
T4 construct: also called variant 51
T4 sequence (looked up): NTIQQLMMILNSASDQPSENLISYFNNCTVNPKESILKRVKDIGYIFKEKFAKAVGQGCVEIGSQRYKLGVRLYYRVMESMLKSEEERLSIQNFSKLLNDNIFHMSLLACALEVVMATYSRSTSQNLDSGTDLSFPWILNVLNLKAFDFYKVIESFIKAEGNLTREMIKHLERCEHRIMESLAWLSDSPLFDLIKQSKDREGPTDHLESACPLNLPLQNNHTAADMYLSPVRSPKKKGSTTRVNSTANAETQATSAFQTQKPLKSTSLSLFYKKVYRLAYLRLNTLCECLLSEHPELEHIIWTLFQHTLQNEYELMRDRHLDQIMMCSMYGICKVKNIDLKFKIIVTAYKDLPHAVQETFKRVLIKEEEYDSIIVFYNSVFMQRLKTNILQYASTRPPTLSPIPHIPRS

Rb^P A490T = biological target: T5, Rb^P A490T (human, UniProt P06400 380-788, A490T)
T5 construct: also called variant 16
T5 sequence (looked up): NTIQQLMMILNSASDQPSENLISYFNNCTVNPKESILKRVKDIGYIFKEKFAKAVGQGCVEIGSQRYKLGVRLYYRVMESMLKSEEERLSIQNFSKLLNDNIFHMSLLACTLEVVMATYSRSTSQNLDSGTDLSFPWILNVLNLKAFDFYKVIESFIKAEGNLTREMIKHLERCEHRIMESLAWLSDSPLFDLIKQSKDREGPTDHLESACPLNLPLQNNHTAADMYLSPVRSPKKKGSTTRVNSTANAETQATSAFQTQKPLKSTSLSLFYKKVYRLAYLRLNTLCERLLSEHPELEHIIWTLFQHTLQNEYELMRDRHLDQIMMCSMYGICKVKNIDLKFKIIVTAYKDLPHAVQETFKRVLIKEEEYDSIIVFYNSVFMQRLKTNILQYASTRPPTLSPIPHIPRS

B1: TMR-E2F1^TD, peptide of the E2F1 transactivation domain (peptide)
peptide: {TMR}-GEGIRDLFDCDFGDLTPLD
notes: also called E2F^TD; source: synthetic peptide, bought: GenScript
Rb^P T687I
  Kd: 20 nM
Rb^P H585Y
  Kd: 35 nM
Rb^P S534R
  Kd: 9.28 µM
Rb^P R668C
  Kd: 12 nM
Rb^P A490T
  Kd: 59 nM

B2: TMR-E7^LxCxE, LxCxE peptide of the E7 oncoprotein from HPV (peptide)
peptide: DLYCYEQLN
modifications: also: TMR label, position not given here
notes: source: synthetic peptide, bought: GenScript
Rb^P T687I
  Kd: 13 nM
Rb^P H585Y
  Kd: 6 nM
Rb^P S534R
  Kd: 0.004 µM
Rb^P R668C
  Kd: 3 nM
Rb^P A490T
  Kd: 13 nM
